Assay results taken from patent US20210087281A1 (AGOMAB THERAPEUTICS, published 2021).

Assays:
[1] = biological target: T1, native human MET on living cells (human, UniProt P08581 25-1390); test: cell-based or functional assay
[2] = biological target: T2, native mouse MET on living cells (mouse, UniProt P16056 25-1379); test: cell-based or functional assay
[3] = biological target: T1, native human MET on living cells; test: cell-based or functional assay; remark: listed apart in the source
[4] = biological target: T2, native mouse MET on living cells; test: cell-based or functional assay; remark: listed apart in the source
[5] = biological target: T1, native human MET on living cells; test: cell-based or functional assay; remark: listed apart in the source
[6] = biological target: T2, native mouse MET on living cells; test: cell-based or functional assay; remark: listed apart in the source
[7] = biological target: T1, native human MET on living cells; test: cell-based or functional assay; remark: listed apart in the source
[8] = biological target: T2, native mouse MET on living cells; test: cell-based or functional assay; remark: listed apart in the source
[9] = biological target: T1, native human MET on living cells; test: flow cytometry, A549 cells
Method: (§1) We also analysed whether chimeric anti-MET antibodies bound to native human and mouse MET in living cells. […] Antibody binding to cells was analysed by flow cytometry using phycoerythrin-conjugated anti-human IgG1 antibodies (eBioscience) and a CyAn ADP analyser (Beckman Coulter). As a positive control for human MET binding, we used a commercial mouse anti-human MET antibody (R&D Systems) and phycoerythrin-conjugated anti-mouse IgG1 antibodies (eBioscience).
(§2) As a positive control for mouse MET binding we used a commercial goat anti-mouse MET antibody (R&D Systems) and phycoerythrin-conjugated anti-goat IgG1 antibodies (eBioscience). […] Consistent with the data obtained in ELISA, maximal binding (EMAX) varied depending on antibody, but was similar in human and mouse cells.

[10] = biological target: T2, native mouse MET on living cells; test: flow cytometry, MLP29 cells
Method: as §1, §2

human MET ECD = biological target: T3, human MET ECD (human, UniProt P08581 25-932); test: ELISA, MET ECD in solid phase, mAb 0-20 nM
T3 construct: range 1-932; recombinant ECD made by the applicants; the stated range begins at residue 1, so it includes the signal peptide of the entry; also called hMET; hMET ECD
T3 sequence (P08581 25-932 limits assumed, form in doubt): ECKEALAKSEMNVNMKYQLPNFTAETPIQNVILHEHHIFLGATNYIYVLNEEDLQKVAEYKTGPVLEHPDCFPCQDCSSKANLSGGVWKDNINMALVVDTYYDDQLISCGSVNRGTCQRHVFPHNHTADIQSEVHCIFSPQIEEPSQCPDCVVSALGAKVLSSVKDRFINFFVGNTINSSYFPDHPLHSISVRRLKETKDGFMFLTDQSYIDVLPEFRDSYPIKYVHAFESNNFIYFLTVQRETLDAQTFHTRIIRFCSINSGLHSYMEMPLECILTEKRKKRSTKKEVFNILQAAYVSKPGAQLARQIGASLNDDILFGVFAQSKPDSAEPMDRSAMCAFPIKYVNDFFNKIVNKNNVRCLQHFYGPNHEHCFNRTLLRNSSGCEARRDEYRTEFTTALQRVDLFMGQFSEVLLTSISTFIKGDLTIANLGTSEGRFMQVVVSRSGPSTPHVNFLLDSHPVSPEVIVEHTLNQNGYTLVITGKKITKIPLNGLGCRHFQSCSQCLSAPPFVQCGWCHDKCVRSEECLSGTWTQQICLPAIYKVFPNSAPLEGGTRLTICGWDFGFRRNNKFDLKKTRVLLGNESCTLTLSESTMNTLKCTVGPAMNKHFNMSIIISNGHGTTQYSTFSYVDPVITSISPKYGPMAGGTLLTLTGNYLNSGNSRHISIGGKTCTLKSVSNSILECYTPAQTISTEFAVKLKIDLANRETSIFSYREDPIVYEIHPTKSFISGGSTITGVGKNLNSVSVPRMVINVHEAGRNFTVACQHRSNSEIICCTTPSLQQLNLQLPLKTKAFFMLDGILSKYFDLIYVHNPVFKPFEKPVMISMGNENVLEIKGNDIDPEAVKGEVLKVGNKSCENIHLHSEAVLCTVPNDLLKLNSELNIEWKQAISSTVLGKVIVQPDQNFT
Method: (§3) Production (by transient transfection of mammalian cells) and purification (by protein A affinity chromatography) of the resulting chimeric llama-human IgG1 molecules was outsourced to U-protein Express. Binding of chimeric mAbs to MET was determined by ELISA using hMET or mMET ECD in solid phase and increasing concentrations of antibodies (0-20 nM) in solution. […] Binding capacity (EMAX) varied from antibody to antibody, possibly due to partial epitope exposure in the immobilized antigen, but was similar in the human and mouse setting.

mouse MET ECD = biological target: T4, mouse MET ECD (mouse, UniProt P16056 25-931); test: ELISA, MET ECD in solid phase, mAb 0-20 nM
T4 construct: range 1-931; recombinant ECD made by the applicants; the stated range begins at residue 1; also called mMET; mMET ECD
Method: as §3

[11] = biological target: T5, human MET-Fc (R&D Systems) (human, UniProt P08581 25-932); test: competition ELISA, hMET-Fc in solid phase, competitor 0.3 nM biotinylated hHGF
T5 construct: extracellular domain; bought chimeric protein; also called hMET; not shown: Fc portion of human IgG1
T5 sequence (P08581 25-932): as the sequence (P08581 25-932 limits assumed, form in doubt) above
Method: (§4) To investigate along this line, we tested the competition between mAbs and HGF by ELISA. Recombinant human and mouse HGF (R&D Systems) were biotinylated at the N-terminus using NHS-LC-biotin (Thermo Scientific). MET-Fc protein, either human or mouse (R&D Systems), was immobilized in solid phase and then exposed to 0.3 nM biotinylated HGF, either human or mouse, in the presence of increasing concentrations of antibodies (0-120 nM).
(§5) A MET-Fc chimeric protein (either human or mouse) was immobilized in solid phase and exposed to a fixed concentration of biotinylated HGF (either human or mouse), in the presence of increasing concentrations of antibodies. […] Antibody-HGF competition is expressed as IC₅₀ (the concentration that achieves 50% competition) and IMAX (the maximum % competition reached at saturation).

[12] = biological target: T6, mouse MET-Fc (R&D Systems) (mouse, UniProt P16056 25-929, limits assumed); test: competition ELISA, mMET-Fc in solid phase, competitor 0.3 nM biotinylated mHGF
T6 construct: bought chimeric protein; also called mMET; not shown: Fc part
Method: as §4, §5

T1 sequence (P08581 25-1390): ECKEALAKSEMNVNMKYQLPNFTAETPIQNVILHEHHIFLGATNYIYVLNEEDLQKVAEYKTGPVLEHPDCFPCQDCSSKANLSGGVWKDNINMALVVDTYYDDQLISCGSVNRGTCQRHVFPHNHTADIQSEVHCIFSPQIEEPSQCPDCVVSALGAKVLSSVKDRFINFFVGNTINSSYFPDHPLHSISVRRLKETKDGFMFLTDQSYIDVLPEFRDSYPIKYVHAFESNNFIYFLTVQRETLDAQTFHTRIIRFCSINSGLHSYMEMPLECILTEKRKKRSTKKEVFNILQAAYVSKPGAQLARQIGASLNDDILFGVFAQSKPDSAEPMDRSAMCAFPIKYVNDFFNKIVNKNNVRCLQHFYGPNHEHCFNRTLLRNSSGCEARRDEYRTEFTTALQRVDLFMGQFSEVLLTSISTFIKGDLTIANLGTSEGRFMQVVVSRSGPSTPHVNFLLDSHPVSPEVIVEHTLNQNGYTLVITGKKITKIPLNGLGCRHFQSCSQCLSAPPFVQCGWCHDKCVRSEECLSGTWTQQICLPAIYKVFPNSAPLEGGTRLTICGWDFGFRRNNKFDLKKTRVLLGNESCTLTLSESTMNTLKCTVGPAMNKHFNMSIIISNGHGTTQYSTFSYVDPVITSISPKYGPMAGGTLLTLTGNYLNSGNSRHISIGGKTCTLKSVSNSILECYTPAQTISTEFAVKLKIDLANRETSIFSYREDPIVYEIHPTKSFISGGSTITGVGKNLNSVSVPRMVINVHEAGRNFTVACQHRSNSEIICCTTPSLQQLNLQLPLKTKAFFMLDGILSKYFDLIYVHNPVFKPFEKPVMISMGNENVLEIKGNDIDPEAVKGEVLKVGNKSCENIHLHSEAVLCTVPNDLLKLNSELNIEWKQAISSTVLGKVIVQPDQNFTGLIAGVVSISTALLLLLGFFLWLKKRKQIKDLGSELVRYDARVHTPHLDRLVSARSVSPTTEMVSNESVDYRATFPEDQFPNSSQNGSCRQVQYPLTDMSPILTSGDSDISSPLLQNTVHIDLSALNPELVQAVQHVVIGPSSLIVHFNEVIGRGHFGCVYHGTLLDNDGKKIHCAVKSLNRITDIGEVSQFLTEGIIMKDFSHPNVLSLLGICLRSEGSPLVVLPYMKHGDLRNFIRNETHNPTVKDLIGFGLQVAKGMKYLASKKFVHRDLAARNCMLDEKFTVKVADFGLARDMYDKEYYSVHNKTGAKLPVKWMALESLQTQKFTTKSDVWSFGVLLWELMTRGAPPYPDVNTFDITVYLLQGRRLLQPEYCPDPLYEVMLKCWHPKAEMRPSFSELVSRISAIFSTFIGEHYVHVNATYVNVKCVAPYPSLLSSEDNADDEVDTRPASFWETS

B1: 71G12 chimeric llama-human IgG1 mAb (antibody, V domains shown)
VH: QVQLQESGGDLVQPGGSLRVSCVVSGFTFSRYYMSWVRQAPGKGLEWVSSIDSYGYSTYYTDSVKGRFTISRDNAKNTLYLQMNSLKPEDTALYYCARAKTTWSYDYWGQGTQVTVSS
VL: EIVLTQSPSSVTASVGGKVTINCKSSQSVFIASNQKTYLNWYQQRPGQSPRLVISYASTRESGIPDRFSGSGSTTDFTLTISSVQPEDAAVYYCQQAYSHPTFGQGTKVELK
notes: llama VH on human IgG1 CH1-CH2-CH3, llama VL on human kappa CL
With B1 the “phospho-MET ELISA EC50, A549 cells” value [1] was 2.48 nM, the “phospho-MET ELISA EMAX (% HGF activity), A549 cells” value [1] was 70.6% and the “phospho-MET ELISA EC50, MLP29 cells” value [2] was 2.01 nM. The “phospho-MET ELISA EMAX (% HGF activity), MLP29 cells” value [2] was 75.4%, the “scatter score 0-4, HPAF-II, 0.001 nM” value [3] was 0 score and the “scatter score 0-4, HPAF-II, 0.004 nM” value [3] was 0 score. The “scatter score 0-4, HPAF-II, 0.012 nM” value [3] was 0 score, the “scatter score 0-4, HPAF-II, 0.037 nM” value [3] was 0 score and the “scatter score 0-4, HPAF-II, 0.111 nM” value [3] was 0 score. For the same binder, the “scatter score 0-4, HPAF-II, 0.333 nM” value [3] was 1 score, the “scatter score 0-4, HPAF-II, 1.000 nM” value [3] was 2 score and the “scatter score 0-4, HPAF-II, 3.000 nM” value [3] was 2 score. For the same binder, the “scatter score 0-4, HPAF-II, 9.000 nM” value [3] was 3 score, the “scatter score 0-4, MLP29, 0.001 nM” value [4] was 0 score and the “scatter score 0-4, MLP29, 0.004 nM” value [4] was 0 score. The “scatter score 0-4, MLP29, 0.012 nM” value [4] was 0 score, the “scatter score 0-4, MLP29, 0.037 nM” value [4] was 0 score and the “scatter score 0-4, MLP29, 0.111 nM” value [4] was 0 score. For the same binder, the “scatter score 0-4, MLP29, 0.333 nM” value [4] was 1 score, the “scatter score 0-4, MLP29, 1.000 nM” value [4] was 2 score and the “scatter score 0-4, MLP29, 3.000 nM” value [4] was 2 score. The “scatter score 0-4, MLP29, 9.000 nM” value [4] was 3 score, the “protection from staurosporine, viability EC50, MCF10A cells” value [5] was over 32 nM and the “protection from staurosporine, viability EMAX, MCF10A cells” value [5] was 39.4%. The “protection from staurosporine, viability EC50, MLP29 cells” value [6] was over 32 nM, the “protection from staurosporine, viability EMAX, MLP29 cells” value [6] was 39.7% and the “branches per spheroid, LOC cells, 0.5 nM” value [7] was 7 branches. The “branches per spheroid, LOC cells, 2.5 nM” value [7] was 15.3 branches, the “branches per spheroid, LOC cells, 12.5 nM” value [7] was 16 branches and the “branches per spheroid, MLP29 cells, 0.5 nM” value [8] was 14 branches. For the same binder, the “branches per spheroid, MLP29 cells, 2.5 nM” value [8] was 14.7 branches, the “branches per spheroid, MLP29 cells, 12.5 nM” value [8] was 22.7 branches and the EC50 [9] was 2.29 nM. For the same binder, the EMAX [9] was 110 % relative to control, the EC50 [10] was 2.54 nM and the EMAX [10] was 121 % relative to control. For the same binder, the EC50 (human MET ECD) was 0.106 nM, the “EMAX (OD450)” value (human MET ECD) was 3.08 AU and the EC50 (mouse MET ECD) was 0.127 nM. The “EMAX (OD450)” value (mouse MET ECD) was 2.97 AU, the IC50 [11] was 3.87 nM and the IMAX [11] was 51.4%. For the same binder, the IC50 [12] was 4.05 nM and the IMAX [12] was 50.7%.

B2: 76G7 chimeric llama-human IgG1 mAb (antibody, V domains shown)
VH: QVQLVESGGNLVQPGGSLRLSCAASGFTFSNYYMSWVRQAPGKGLEWVSDIYSDGSTTWYSDSVKGRFTISRDNAKNTLSLQMNSLKSEDTAVYYCARVKIYPGGYDAWGQGTQVTVSS
VL: QAGLTQPPSVSGSPGKTVTISCAGNSSDVGYGNYVSWYQQFPGMAPKLLIYLVNKRASGITDRFSGSKSGNTASLTISGLQSEDEADYYCASYTGSNNIVFGGGTHLTVL
notes: llama VH on human IgG1 CH1-CH2-CH3, llama VL on human lambda CL
For B2, the “phospho-MET ELISA EC50, A549 cells” value [1] was 1.86 nM, the “phospho-MET ELISA EMAX (% HGF activity), A549 cells” value [1] was 62.3% and the “phospho-MET ELISA EC50, MLP29 cells” value [2] was 1.19 nM. The “phospho-MET ELISA EMAX (% HGF activity), MLP29 cells” value [2] was 71.5%, the “scatter score 0-4, HPAF-II, 0.001 nM” value [3] was 0 score and the “scatter score 0-4, HPAF-II, 0.004 nM” value [3] was 0 score. For the same binder, the “scatter score 0-4, HPAF-II, 0.012 nM” value [3] was 0 score, the “scatter score 0-4, HPAF-II, 0.037 nM” value [3] was 0 score and the “scatter score 0-4, HPAF-II, 0.111 nM” value [3] was 0 score. The “scatter score 0-4, HPAF-II, 0.333 nM” value [3] was 0 score, the “scatter score 0-4, HPAF-II, 1.000 nM” value [3] was 1 score and the “scatter score 0-4, HPAF-II, 3.000 nM” value [3] was 2 score. The “scatter score 0-4, HPAF-II, 9.000 nM” value [3] was 3 score, the “scatter score 0-4, MLP29, 0.001 nM” value [4] was 0 score and the “scatter score 0-4, MLP29, 0.004 nM” value [4] was 0 score. For the same binder, the “scatter score 0-4, MLP29, 0.012 nM” value [4] was 0 score, the “scatter score 0-4, MLP29, 0.037 nM” value [4] was 0 score and the “scatter score 0-4, MLP29, 0.111 nM” value [4] was 0 score. For the same binder, the “scatter score 0-4, MLP29, 0.333 nM” value [4] was 0 score, the “scatter score 0-4, MLP29, 1.000 nM” value [4] was 1 score and the “scatter score 0-4, MLP29, 3.000 nM” value [4] was 2 score. The “scatter score 0-4, MLP29, 9.000 nM” value [4] was 3 score, the “protection from staurosporine, viability EC50, MCF10A cells” value [5] was 25.4 nM and the “protection from staurosporine, viability EMAX, MCF10A cells” value [5] was 51.9%. For the same binder, the “protection from staurosporine, viability EC50, MLP29 cells” value [6] was 30.1 nM, the “protection from staurosporine, viability EMAX, MLP29 cells” value [6] was 50.2% and the “branches per spheroid, LOC cells, 0.5 nM” value [7] was 6.7 branches. For the same binder, the “branches per spheroid, LOC cells, 2.5 nM” value [7] was 13.3 branches, the “branches per spheroid, LOC cells, 12.5 nM” value [7] was 16.3 branches and the “branches per spheroid, MLP29 cells, 0.5 nM” value [8] was 14.7 branches. The “branches per spheroid, MLP29 cells, 2.5 nM” value [8] was 18.7 branches, the “branches per spheroid, MLP29 cells, 12.5 nM” value [8] was 24.7 branches and the EC50 [9] was 2.3 nM. The EMAX [9] was 121 % relative to control, the EC50 [10] was 2.37 nM and the EMAX [10] was 115 % relative to control. The EC50 (human MET ECD) was 0.128 nM, the “EMAX (OD450)” value (human MET ECD) was 2.62 AU and the EC50 (mouse MET ECD) was 0.103 nM. The “EMAX (OD450)” value (mouse MET ECD) was 2.78 AU, the IC50 [11] was 1.47 nM and the IMAX [11] was 69.4%. It also gave an IC50 [12] of 1.56 nM and an IMAX [12] of 62.5%.
